Test results published in US20150030599A1 (SAMSUNG ELECTRONICS, published 2015).

Target: T1, EGFR-Fc (#344-ER, R&D Systems) (UniProt P00533 25-645)
T1 construct: Bought reagent; not shown: Fc part of the bought fusion protein is not described
Experiment: SPR (Biacore T100), ME22S captured on human Fab binder, EGFR-Fc injected
Experimental: In addition, the affinities of the prepared anti-c-Met/anti-EGFR bispecific antibody to the two types of antigens, c-Met and EGFR, were each identified using Biacore T100 (GE). A human Fab binder (GE Healthcare) was immobilized at the surface of a CM5 chip (#BR-1005-30, GE) according to the manufacturer's specifications. […] 10 mM Glycine-HCl (pH 1.5) solution was injected thereto to regenerate the surface. In order to measure affinity, the data obtained from this experiment was fitted using BIAevaluation software (GE Healthcare, Biacore T100 evaluation software).

B1: anti-c-Met/anti-EGFR bispecific antibody ME22S (bispecific antibody)
heavy: EVQLVESGGGLVQPGGSLRLSCAASGFTFTDYYMSWVRQAPGKGLEWLGFIRNKANGYTTEYSASVKGRFTISRDNSKNTLYLQMNSLRAEDTAVYYCARDNWFAYWGQGTLVTVSSASTKGPSVFPLAPCSRSTSESTAALGCLVKDYFPEPVTVSWNSGALTSGVHTFPAVLQSSGLYSLSSVVTVPSSNFGTQTYTCNVDHKPSNTKVDKTVERKCCVECPPCPAPPVAGPSVFLFPPKPKDTLMISRTPEVTCVVVDVSHEDPEVQFNWYVDGVEVHNAKTKPREEQFNSTFRVVSVLTVVHQDWLNGKEYKCKVSNKGLPAPIEKTISKTKGQPREPQVYTLPPSREEMTKNQVSLTCLVKGFYPSDIAVEWESNGQPENNYKTTPPMLDSDGSFFLYSKLTVDKSRWQQGNVFSCSVMHEALHNHYTQKSLSLSPGKGGGGSGGGGSEVQLLESGGGLVQPGGSLRLSCAASGFTFSNYDMSWVRQAPGKCLEWVSGISHSSGSKYYADSVKGRFTISRDNSKNTLYLQMNSLRAEDTAVYYCAKDATPRPLKPFDYWGQGTLVTVSSGGGGSGGGGSGGGGSQSVLTQPPSASGTPGQRVTISCTGSSSNIGNNDVSWYQQLPGTAPKLLIYDDNKRPSGVPDRFSGSKSGTSASLAISGLRSEDEADYYCGSWDASLNAYVFGCGTKLTVLG
light: DIQMTQSPSSLSASVGDRVTITCKSSQSLLASGNQNNYLAWYQQKPGKAPKMLIIWASTRVSGVPSRFSGSGSGTDFTLTISSLQPEDFATYYCQQSYSRPYTFGQGTKVEIKRTVAAPSVFIFPPSDEQLKSGTASVVCLLNNFYPREAKVQWKVDNALQSGNSQESVTEQDSKDSTYSLSSTLTLSKADYEKHKVYACEVTHQGLSSPVTKSFNRGEC
notes: The modified anti-EGFR scFv is fused through (G4S)2 to the C-terminus of the Fc of L3-1Y-IgG2
Kd: 0.49 nM
koff: 9.2e-05 s⁻¹
kon: 190000 M⁻¹ s⁻¹
